The text below walks through data of patent US20090053196.

The data set has as its system FLAG-tagged UNC-45 (UNC-45^FLAG).

Regarding ^mycCHN-1^ΔU-box, the “in vitro ubiquitylation of UNC-45, Western blot” value is recorded as “a CHN-1 version lacking the U-box, CHN-1^ΔU-box, was not able to ubiquitylate UNC-45”.
